Tests used:
[1] = biological target: T1, MarA (Escherichia coli, UniProt P0ACH5 P0ACH5:1-127)
T1 sequence: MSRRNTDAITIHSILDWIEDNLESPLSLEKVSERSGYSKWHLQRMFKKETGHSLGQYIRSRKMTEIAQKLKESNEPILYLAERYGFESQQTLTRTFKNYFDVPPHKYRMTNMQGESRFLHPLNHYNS

[2] = biological target: SoxS (Escherichia coli, UniProt P0A9E2 P0A9E2:1-107)
[3] = biological target: Rob (Escherichia coli, UniProt P0ACI0 SEQ:1-289)

Measured: binding result

Sequence of SoxS (P0A9E2 whole entry, one chain of several): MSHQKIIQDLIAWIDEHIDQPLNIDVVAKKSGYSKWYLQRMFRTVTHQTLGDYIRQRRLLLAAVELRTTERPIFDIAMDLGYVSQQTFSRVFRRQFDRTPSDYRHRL
Sequence of Rob (P0ACI0 whole entry): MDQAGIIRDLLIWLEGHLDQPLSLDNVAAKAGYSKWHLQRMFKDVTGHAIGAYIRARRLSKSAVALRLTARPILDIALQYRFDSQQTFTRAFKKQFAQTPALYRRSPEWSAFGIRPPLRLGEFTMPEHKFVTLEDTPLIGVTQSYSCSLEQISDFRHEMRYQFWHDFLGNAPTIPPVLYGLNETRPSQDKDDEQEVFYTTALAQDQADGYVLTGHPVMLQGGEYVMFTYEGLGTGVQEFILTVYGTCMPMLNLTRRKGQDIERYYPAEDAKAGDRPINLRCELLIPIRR

B1: biotinylated target DNA (SEQ ID NO. 5) (dsDNA)
DNA 1: CCGATTTAGCAAAACGTGGCATCGGTC
DNA 2: GACCGATGCCACGTTTTGCTAAATCGG
binds: [1] | [2] | [3]
